{"source": "patent US10729768B2", "about": "“Combination of anti-CD20 antibody and PI3 kinase selective inhibitor” (TG Therapeutics, Inc., priority 2012, dated 2020)", "molecules": {"B1": {"name": "UBX: monoclonal antibody that targets a specific and unique epitope on CD20, bioengineered for enhanced clinical activity and potency (antibody, V domains shown)", "VH": "QAYLQQSGAELVRPGASVKMSCKASGYTFTSYNMHWVKQTPRQGLEWIGGIYPGNGDTSYNQKFKGKATLTVGKSSSTAYMQLSSLTSEDSAVYFCARYDYNYAMDYWGQGTSVTVSS", "VL": "QIVLSQSPAILSASPGEKVTMTCRASSSVSYMHWYQQKPGSSPKPWIYATSNLASGVPARFSGSGSGTSYSFTISRVEAEDAATYYCQQWTFNPPTFGGGTRLEIK", "modifications": "antibody fragment"}}, "assay_type_in_all_cases": "cell-based", "key": {"[1]": {"test_system": "LY1 Cells", "experiment": "in situ caspase-3 kit, caspase 3 activity and combination index (Example 5)", "settings": "for Caspase 3 Activity: LY1 cells, 24 hrs", "experimental": "(§1) In order to determine the effect of S-isomer of a compound of formula A, UBX, and combinations thereof on apoptosis in cancer cells, an in situ caspase-3 kit (Millipore) was used. CELLS were plated in a 6 well plate at a concentration of 0.5×10^6 cells/ml, treated with either S-isomer of a compound of formula A (200-5000 nM), UBX (10,000 ng/ml to 10 ng/ml), or UBX with S-isomer of a compound of formula A (as indicated), and incubated for 24 hrs at 37° C. and 5% CO2. The cells were then transferred to microfuge tubes to receive 10 μl of freshly prepared FLICA™ reagent and incubated for 1 hour at 37° C. and 5% CO2 away from light. After extensive washes with wash buffer, test samples were adjusted to equalize the number of cells in PBS. 100 μl of each cell suspension was transferred to black 96-well plates in duplicates, and the fluorescence was read at an excitation wavelength of 490 nm and an emission wavelength of 520 nm in a plate reader. The fluorescence intensity for a DMSO control was subtracted from that of test compounds. Data was expressed as caspase-3 activity a combination index (C.I.) calculated."}, "[2]": {"test_system": "Raji Cells", "experiment": "in situ caspase-3 kit, caspase 3 activity and combination index (Example 5)", "settings": "24 hrs; for Caspase 3 Activity: Raji cells", "experimental": "as §1"}, "[3]": {"test_system": "Daudi cells", "experiment": "cell cycle assay, flow cytometry", "settings": "for G0/G1, percentage of the cell population / G2/M, percentage of the cell population / S, percentage of the cell population / Sub G0, percentage of the cell population: 72 h", "experimental": "(§2) A cell cycle assay reagent (Millipore) was used to determine the effect of S-isomer of a compound of formula A, UBX, and combinations thereof on the cell cycle in cancerous cells. […] The cells were transferred to microfuge tubes to receive 50 μl of cell cycle reagent and incubated for 30 minutes at RT away from light. Cells were then diluted with 300-400 μl PBS, and a minimum of 10,000 events were acquired on a Guava® easyCyte™ flow cytometer. The data was analyzed with Express Pro software and the percentage of the cell population in different cell cycle stages with respect to control was presented in histograms."}, "[4]": {"test_system": "U266B1 cells", "experiment": "cell cycle assay, flow cytometry", "settings": "for G0/G1, percentage of the cell population / G2/M, percentage of the cell population / S, percentage of the cell population / Sub G0, percentage of the cell population: 72 h", "experimental": "as §2"}}}
{"molecule": "B1", "values": [{"measurement": "caspase-3 activity", "setting": "[1]; LY1, 24 hrs", "result": "induced"}, {"measurement": "Caspase 3 Activity", "setting": "[1]; UBX 10 ng/ml", "result": 0.23}, {"measurement": "Caspase 3 Activity", "setting": "[1]; UBX 100 ng/ml", "result": 0.32}, {"measurement": "Caspase 3 Activity", "setting": "[1]; UBX 1000 ng/ml", "result": 0.53}, {"measurement": "Caspase 3 Activity", "setting": "[1]; UBX 10,000 ng/ml", "result": 0.59}, {"measurement": "Caspase 3 Activity", "setting": "[2]; UBX 10 ng/ml", "result": 0.18}, {"measurement": "Caspase 3 Activity", "setting": "[2]; UBX 100 ng/ml", "result": 0.31}, {"measurement": "Caspase 3 Activity", "setting": "[2]; UBX 1000 ng/ml", "result": 0.51}, {"measurement": "Caspase 3 Activity", "setting": "[2]; UBX 10,000 ng/ml", "result": 0.60}, {"measurement": "caspase-3 activity", "setting": "[2]; Raji", "result": "induced"}, {"measurement": "G0/G1, percentage of the cell population", "setting": "[3]; UBX 0.001 ng/ml", "result": 38.12}, {"measurement": "G2/M, percentage of the cell population", "setting": "[3]; UBX 0.001 ng/ml", "result": 41.95}, {"measurement": "S, percentage of the cell population", "setting": "[3]; UBX 0.001 ng/ml", "result": 17.90}, {"measurement": "Sub G0, percentage of the cell population", "setting": "[3]; UBX 0.001 ng/ml", "result": 2.03}, {"measurement": "G0/G1, percentage of the cell population", "setting": "[3]; UBX 0.01 ng/ml", "result": 36.24}, {"measurement": "G2/M, percentage of the cell population", "setting": "[3]; UBX 0.01 ng/ml", "result": 37.83}, {"measurement": "S, percentage of the cell population", "setting": "[3]; UBX 0.01 ng/ml", "result": 19.15}, {"measurement": "Sub G0, percentage of the cell population", "setting": "[3]; UBX 0.01 ng/ml", "result": 6.77}, {"measurement": "G0/G1, percentage of the cell population", "setting": "[3]; UBX 0.1 ng/ml", "result": 37.40}, {"measurement": "G2/M, percentage of the cell population", "setting": "[3]; UBX 0.1 ng/ml", "result": 32.42}, {"measurement": "S, percentage of the cell population", "setting": "[3]; UBX 0.1 ng/ml", "result": 17.06}, {"measurement": "Sub G0, percentage of the cell population", "setting": "[3]; UBX 0.1 ng/ml", "result": 13.42}, {"measurement": "G0/G1, percentage of the cell population", "setting": "[3]; UBX 1 ng/ml", "result": 40.52}, {"measurement": "G2/M, percentage of the cell population", "setting": "[3]; UBX 1 ng/ml", "result": 26.99}, {"measurement": "S, percentage of the cell population", "setting": "[3]; UBX 1 ng/ml", "result": 17.54}, {"measurement": "Sub G0, percentage of the cell population", "setting": "[3]; UBX 1 ng/ml", "result": 14.95}, {"measurement": "G0/G1, percentage of the cell population", "setting": "[3]; UBX 10 ng/ml", "result": 40.92}, {"measurement": "G2/M, percentage of the cell population", "setting": "[3]; UBX 10 ng/ml", "result": 28.08}, {"measurement": "S, percentage of the cell population", "setting": "[3]; UBX 10 ng/ml", "result": 13.23}, {"measurement": "Sub G0, percentage of the cell population", "setting": "[3]; UBX 10 ng/ml", "result": 17.77}, {"measurement": "G0/G1, percentage of the cell population", "setting": "[3]; UBX 100 ng/ml", "result": 43.66}, {"measurement": "G2/M, percentage of the cell population", "setting": "[3]; UBX 100 ng/ml", "result": 28.55}, {"measurement": "S, percentage of the cell population", "setting": "[3]; UBX 100 ng/ml", "result": 9.28}, {"measurement": "Sub G0, percentage of the cell population", "setting": "[3]; UBX 100 ng/ml", "result": 19.55}, {"measurement": "cell cycle effect", "setting": "[3]; 72 hours", "result": "increased the number of Sub GO cells"}, {"measurement": "G0/G1, percentage of the cell population", "setting": "[4]; UBX 0.001 ng/ml", "result": 60.79}, {"measurement": "G2/M, percentage of the cell population", "setting": "[4]; UBX 0.001 ng/ml", "result": 30.49}, {"measurement": "S, percentage of the cell population", "setting": "[4]; UBX 0.001 ng/ml", "result": 6.00}, {"measurement": "Sub G0, percentage of the cell population", "setting": "[4]; UBX 0.001 ng/ml", "result": 1.34}, {"measurement": "G0/G1, percentage of the cell population", "setting": "[4]; UBX 0.01 ng/ml", "result": 59.32}, {"measurement": "G2/M, percentage of the cell population", "setting": "[4]; UBX 0.01 ng/ml", "result": 35.48}, {"measurement": "S, percentage of the cell population", "setting": "[4]; UBX 0.01 ng/ml", "result": 6.57}, {"measurement": "Sub G0, percentage of the cell population", "setting": "[4]; UBX 0.01 ng/ml", "result": 0.74}, {"measurement": "G0/G1, percentage of the cell population", "setting": "[4]; UBX 0.1 ng/ml", "result": 57.53}, {"measurement": "G2/M, percentage of the cell population", "setting": "[4]; UBX 0.1 ng/ml", "result": 35.64}, {"measurement": "S, percentage of the cell population", "setting": "[4]; UBX 0.1 ng/ml", "result": 7.63}, {"measurement": "Sub G0, percentage of the cell population", "setting": "[4]; UBX 0.1 ng/ml", "result": 1.35}, {"measurement": "G0/G1, percentage of the cell population", "setting": "[4]; UBX 1 ng/ml", "result": 58.81}, {"measurement": "G2/M, percentage of the cell population", "setting": "[4]; UBX 1 ng/ml", "result": 36.07}, {"measurement": "S, percentage of the cell population", "setting": "[4]; UBX 1 ng/ml", "result": 7.07}, {"measurement": "Sub G0, percentage of the cell population", "setting": "[4]; UBX 1 ng/ml", "result": 0.51}, {"measurement": "G0/G1, percentage of the cell population", "setting": "[4]; UBX 10 ng/ml", "result": 56.85}, {"measurement": "G2/M, percentage of the cell population", "setting": "[4]; UBX 10 ng/ml", "result": 37.86}, {"measurement": "S, percentage of the cell population", "setting": "[4]; UBX 10 ng/ml", "result": 6.34}, {"measurement": "Sub G0, percentage of the cell population", "setting": "[4]; UBX 10 ng/ml", "result": 0.78}, {"measurement": "G0/G1, percentage of the cell population", "setting": "[4]; UBX 100 ng/ml", "result": 52.95}, {"measurement": "G2/M, percentage of the cell population", "setting": "[4]; UBX 100 ng/ml", "result": 39.65}, {"measurement": "S, percentage of the cell population", "setting": "[4]; UBX 100 ng/ml", "result": 7.91}, {"measurement": "Sub G0, percentage of the cell population", "setting": "[4]; UBX 100 ng/ml", "result": 1.95}, {"measurement": "cell cycle effect", "setting": "[4]; 72 hours", "result": "modest G2/M arrest"}]}
